Columns and labels:
[1] = molecular target: PorU (Porphyromonas gingivalis W50 (endogenous in OMVs)); test: native gel or EMSA; 2D BN-PAGE (Coomassie, spots identified by MS, densitometry) of large-scale glycerol gradient fractions F15-F17 of 1% DDM-solubilised OMV lysate of WT W50
[2] = molecular target: PorQ (strain ATCC 33277) (Porphyromonas gingivalis ATCC 33277 (endogenous in OMVs)); test: native gel or EMSA; settings: scale: PorZ per PorQ

PorZ (natural protein)
stoichiometry N ([1]; scale: PorZ per PorU): 1

PorQ (natural protein)
stoichiometry N ([1]; scale: PorQ per PorU): 1

PorV (natural protein)
stoichiometry N ([1]; scale: PorV per PorU): 3

PorZ (strain ATCC 33277) (natural protein)
stoichiometry N [2]: 1

From PMC5562754
